Test results from patent US20120316071A1 (published 2012).

B1: Fab VH1-46_IGHD6-6*01_IGHJ1*01 S102A/S103P/S104F (APF) & L6_IGKJ1*01 S30L (Fab, V domains shown)
VH: QVQLVQSGAEVKKPGASVKVSCKASGYTFTSYYMHWVRQAPGQGLEWMGIINPSGGSTSYAQKFQGRVTMTRDTSTSTVYMELSSLRSEDTAVYYCAREEYAPFSAEYFQHWGQGTLVTVSS
VL: EIVLTQSPATLSLSPGERATLSCRASQSVLSYLAWYQQKPGQAPRLLIYDASNRATGIPARFSGSGSGTDFTLTISSLEPEDFAVYYCQQRSNWPPWTFGQGTKVEIKR
notes: Tested as a Fab; Expressed in E. coli from Plasmid A (CH1 with His6 and Flag tags) and Plasmid C (kappa CL); also called APF & S30L
B2: Fab VH1-46_IGHD6-6*01_IGHJ1*01 S102A/S103P/S104F (APF) & L6_IGKJ1*01 S30R (Fab, V domains shown)
VH: QVQLVQSGAEVKKPGASVKVSCKASGYTFTSYYMHWVRQAPGQGLEWMGIINPSGGSTSYAQKFQGRVTMTRDTSTSTVYMELSSLRSEDTAVYYCAREEYAPFSAEYFQHWGQGTLVTVSS
VL: EIVLTQSPATLSLSPGERATLSCRASQSVRSYLAWYQQKPGQAPRLLIYDASNRATGIPARFSGSGSGTDFTLTISSLEPEDFAVYYCQQRSNWPPWTFGQGTKVEIKR
notes: Tested as a Fab; Expressed in E. coli from Plasmid A (CH1 with His6 and Flag tags) and Plasmid C (kappa CL); also called APF & S30R
B3: Fab VH1-46_IGHD6-6*01_IGHJ1*01 S102A/S103P/S104F/H111F (APFF) & L6_IGKJ1*01 S28G (Fab, V domains shown)
VH: QVQLVQSGAEVKKPGASVKVSCKASGYTFTSYYMHWVRQAPGQGLEWMGIINPSGGSTSYAQKFQGRVTMTRDTSTSTVYMELSSLRSEDTAVYYCAREEYAPFSAEYFQFWGQGTLVTVSS
VL: EIVLTQSPATLSLSPGERATLSCRASQGVSSYLAWYQQKPGQAPRLLIYDASNRATGIPARFSGSGSGTDFTLTISSLEPEDFAVYYCQQRSNWPPWTFGQGTKVEIKR
notes: Tested as a Fab; Expressed in E. coli from Plasmid A (CH1 with His6 and Flag tags) and Plasmid C (kappa CL); also called APFF & S28G
B4: Fab VH1-46_IGHD6-6*01_IGHJ1*01 S102A/S103P/S104F (APF) & L6_IGKJ1*01 S30T (Fab, V domains shown)
VH: QVQLVQSGAEVKKPGASVKVSCKASGYTFTSYYMHWVRQAPGQGLEWMGIINPSGGSTSYAQKFQGRVTMTRDTSTSTVYMELSSLRSEDTAVYYCAREEYAPFSAEYFQHWGQGTLVTVSS
VL: EIVLTQSPATLSLSPGERATLSCRASQSVTSYLAWYQQKPGQAPRLLIYDASNRATGIPARFSGSGSGTDFTLTISSLEPEDFAVYYCQQRSNWPPWTFGQGTKVEIKR
notes: Tested as a Fab; Expressed in E. coli from Plasmid A (CH1 with His6 and Flag tags) and Plasmid C (kappa CL); also called APF & S30T
B5: Fab VH1-46_IGHD6-6*01_IGHJ1*01 S102A/S103P/S104F/H111F (APFF) & L6_IGKJ1*01 S28F (Fab, V domains shown)
VH: QVQLVQSGAEVKKPGASVKVSCKASGYTFTSYYMHWVRQAPGQGLEWMGIINPSGGSTSYAQKFQGRVTMTRDTSTSTVYMELSSLRSEDTAVYYCAREEYAPFSAEYFQFWGQGTLVTVSS
VL: EIVLTQSPATLSLSPGERATLSCRASQFVSSYLAWYQQKPGQAPRLLIYDASNRATGIPARFSGSGSGTDFTLTISSLEPEDFAVYYCQQRSNWPPWTFGQGTKVEIKR
notes: Tested as a Fab; Expressed in E. coli from Plasmid A (CH1 with His6 and Flag tags) and Plasmid C (kappa CL); also called APFF & S28F
B6: Fab VH1-46_IGHD6-6*01_IGHJ1*01 S102A/S103P/S104F/H111F (APFF) & L6_IGKJ1*01 S28V (Fab, V domains shown)
VH: QVQLVQSGAEVKKPGASVKVSCKASGYTFTSYYMHWVRQAPGQGLEWMGIINPSGGSTSYAQKFQGRVTMTRDTSTSTVYMELSSLRSEDTAVYYCAREEYAPFSAEYFQFWGQGTLVTVSS
VL: EIVLTQSPATLSLSPGERATLSCRASQVVSSYLAWYQQKPGQAPRLLIYDASNRATGIPARFSGSGSGTDFTLTISSLEPEDFAVYYCQQRSNWPPWTFGQGTKVEIKR
notes: Tested as a Fab; Expressed in E. coli from Plasmid A (CH1 with His6 and Flag tags) and Plasmid C (kappa CL); also called APFF & S28V
B7: Fab VH1-46_IGHD6-6*01_IGHJ1*01 S102A/S103P/S104F (APF) & L6_IGKJ1*01 S30W (Fab, V domains shown)
VH: QVQLVQSGAEVKKPGASVKVSCKASGYTFTSYYMHWVRQAPGQGLEWMGIINPSGGSTSYAQKFQGRVTMTRDTSTSTVYMELSSLRSEDTAVYYCAREEYAPFSAEYFQHWGQGTLVTVSS
VL: EIVLTQSPATLSLSPGERATLSCRASQSVWSYLAWYQQKPGQAPRLLIYDASNRATGIPARFSGSGSGTDFTLTISSLEPEDFAVYYCQQRSNWPPWTFGQGTKVEIKR
notes: Tested as a Fab; Expressed in E. coli from Plasmid A (CH1 with His6 and Flag tags) and Plasmid C (kappa CL); also called APF & S30W
B8: Fab VH1-46_IGHD6-6*01_IGHJ1*01 S102A/S103P/S104F/H111F (APFF) & L6_IGKJ1*01 S28K (Fab, V domains shown)
VH: QVQLVQSGAEVKKPGASVKVSCKASGYTFTSYYMHWVRQAPGQGLEWMGIINPSGGSTSYAQKFQGRVTMTRDTSTSTVYMELSSLRSEDTAVYYCAREEYAPFSAEYFQFWGQGTLVTVSS
VL: EIVLTQSPATLSLSPGERATLSCRASQKVSSYLAWYQQKPGQAPRLLIYDASNRATGIPARFSGSGSGTDFTLTISSLEPEDFAVYYCQQRSNWPPWTFGQGTKVEIKR
notes: Tested as a Fab; Expressed in E. coli from Plasmid A (CH1 with His6 and Flag tags) and Plasmid C (kappa CL); also called APFF & S28K
B9: Fab VH1-46_IGHD6-6*01_IGHJ1*01 S102A/S103P/S104F (APF) & L6_IGKJ1*01 Y32S (Fab, V domains shown)
VH: QVQLVQSGAEVKKPGASVKVSCKASGYTFTSYYMHWVRQAPGQGLEWMGIINPSGGSTSYAQKFQGRVTMTRDTSTSTVYMELSSLRSEDTAVYYCAREEYAPFSAEYFQHWGQGTLVTVSS
VL: EIVLTQSPATLSLSPGERATLSCRASQSVSSSLAWYQQKPGQAPRLLIYDASNRATGIPARFSGSGSGTDFTLTISSLEPEDFAVYYCQQRSNWPPWTFGQGTKVEIKR
notes: Tested as a Fab; Expressed in E. coli from Plasmid A (CH1 with His6 and Flag tags) and Plasmid C (kappa CL); also called APF & Y32S

Target: T1, Recombinant Human DLL4 (R&D Systems Cat#1506-D4/CF) (human, UniProt Q9NR61 27-524)
T1 construct: Bought recombinant protein; also called delta-like protein 4; rHuman DLL4
Experiment: ECL (MSD) multispot binding assay, DLL4 spotted on plate, Fab in solution
Procedure: An 150 μl aliquot of 1% Bovine Serum Albumin (BSA) in Tris-buffered Saline Tween (TBST) was added to each well and allowed to incubate for 30 min at 20° C. followed by washing and tap drying to completely remove any residual solution. Subsequently, a 12.5 μl aliquot of 1% BSA TBST was added to each well followed by the addition of a 12.5 μl aliquot of a purified Fab. The plate was sealed and incubated for 1 hour at 20° C. with shaking
TAG-detection antibody at 25 μl was added to each well and allowed to incubate for 1 hour at 20° C. with shaking. Finally, 15 μl of Read Buffer P with Surfactant (Cat # R92PC-1, Meso Scale Discovery) was added to each well. The electrochemiluminescence was measured using a Sector Imager 2400 (Meso Scale Discovery). Data was analyzed by comparing the ECL signals for an antigen to the blank of each well. A signal to blank ratio of 4 or more was considered a “Hit” Fab.

Binder	ECL signal	Signal/Blank
B1	1630	6.9
B2	745	7.8
B3	183000	533
B4	1020	4.9
B5	134000	537
B6	83100	351
B7	791	4.3
B8	124000	314
B9	1030	4.9
